This data set in a line: soluble on expression in E. coli; label from the status in PepcDB or PDB records.
Turning to “GPGSMPSSSLSQSSAPRQPPLGDSGECRCSTLPPKPPLAGVEEPQPSDAEDPIPFLATMSMNQVGFLHARKCTRRDLLGTSLGNCPASENVLANGASHGIEATPLPGSRSATSTSFTSPTSAPLAPMAESECDVSYLEQMLMQIMDAAKAFANTSQAPSCDTAPQSADTLPACEYLLRKCFHFDTGAFKPRQQEVCLSVLAGVNTLAVCPTGWGKSLCFQFPMLVHRLLFQCRYTRWCRQAATAPAAAQQSSETAVKEGQTGASRFAGALPSAGLPAHLFSRFCVVVSPLLALMEDQAEKINAVDHLSAFVLSAKVGADREARVLAQLESPVCPLDILFVSPEN”, the “soluble on expression in E. coli” value is “not soluble”.
As for “MGSDKIHHHHHHMAQSSIEWTEMTWNPTTGCTKISAGCKFCYAEIMSKRLKAMGIDKYKDGFKVNIYPDALSIPYTWKSSKVVFVNSMSDLFHEDIPLDYIKKVFQVMNENPQHVFQVLTKRAERLFEVYKELKWTHNIWMGVSVENDKVKNRIDLLRKTSAKVKFLSLEPLIGPLPKLNLKKIDWVIVGGESGHRPRPMDSDWVLDIQEQCLKSDVAFFFKQWGGRNKKANGRLLNGRTYDEMPEIMEIEKVK”, the “soluble on expression in E. coli” value is “not soluble”.
On to “MPEQLKQRVETCYQQAEAFFKRRFPRPEVSFKLRGQKAGVAHLHENLLRFNLQLYRENQEDFLRQTVAHEVAHLVAHQLFGDRIQAHGEEWQLIMRGVYELPPNRCHNYDVQRRAVTRYIYRCPCPQSDFPFTAQRHKLVHQGRRYLCKRCREVLVYSGETRVE”, for which the “soluble on expression in E. coli” value is on record as “soluble”.
Take “GSSHHHHHHSSGLVPRGSHMRIVFDIGGSVLVPENPDIDFIKEIAYQLTKVSEDHEVAVVVGGGKLARKYIEVAEKFNSSETFKDFIGIQITRANAMLLIAALREKAYPVVVEDFWEAWKAVQLKKIPVMGGTHPGHTTDAVAALLAEFLKADLLVVITNVDGVYTADPKKDPTAKKIKKMKPEELLEIVGKGIEKAGSSSVIDPLAAKIIARSGIKTIVIGKEDAKDLFRVIKGDHNGTTIEP”: the “soluble on expression in E. coli” value is given as “soluble”.
Consider “MFLRIDRLQIELPMPKEQDPNAAAAVQALLGGRFGEMSTLMNYMYQSFNFRGKKALKPYYDLIANIATEELGHIELVAATINSLLAKNPGKDLEEGVDPESAPLGFAKDVRNAAHFIAGGANSLVMGAMGEHWNGEYVFTSGNLILDLLHNFFLEVAARTHKLRVYEMTDNPVAREMIGYLLVRGGVHAAAYGKALESLTGVEMTKMLPIPKIDNSKIPEAKKYMDLGFHRNLYRFSPEDYRDLGLIWKGASPEDGTEVVVVDGPPTGGPVFDAGHDAAEFAPEFHPGELYEIAKKLYEKAK”, for which the “soluble on expression in E. coli” value is “soluble”.
For “GPLGSKNMLLEWCRAMTRNYEHVDIQNFSSSWSSGMAFCALIHKFFPEAFDYAELDPAKRRHNFTLAFSTAEKLADCAQLLEVDDMVRLAVPDSKCVYTYIQELYRSLVQKGLVKTKKK”, the “soluble on expression in E. coli” value is listed as “soluble”.
As for “MKIYVDADACPVKDVIIFEATKAEIPVTLVTSFSHYSNAEQPKGVETIYVDSGADAADYRIMQLAQKEDLIVTQDYGLASLALAKGCIVLHHKGYKYTNENIDQLLQTRYLSAMVRKSGKRTKGPKPFTAEDKEKFRALFKSMIPLLEHHHHHH”, the “soluble on expression in E. coli” value is listed as “soluble”.
As to “AHHHHHHGSKAFISIDLEGLPYIVSREHLFVKGALYNEARKIATKIAKIAAEKLHEEGFEEIVIADSHGPMVNIIPEEMPSYVSIVRGFPRPLSMVAFGKGSDIAIFLGYHAKAGTSFATFDHTYSGATIDKIIISGIEVSEFLLNSMVLGEWGVPIGLVAGDEALKEDLKYVPWAEFIPLKKASGRYSALSPSMEAIEKELKAGIKRAVEKLNNKELRAFKIETPVDVEIRFLNSAYAEVADLLPGVERIDGKTIRFTANTVEDAYKIMEVLTLAAAGVSYIVSR”, the “soluble on expression in E. coli” value is listed as “not soluble”.
The same measure for “MPILEKAPQKMPVKASSWEELDLPKLPVPPLQQTLATYLQCMQHLVPEEQFRKSQAIVKRFGAPGGLGETLQEKLLERQEKTANWVSEYWLNDMYLNNRLALPVNSSPAVIFARQHFQDTNDQLRFAACLISGVLSYKTLLDSHSLPTDWAKGQLSGQPLCMKQYYRLFSSYRLPGHTQDTLVAQKSSIMPEPEHVIVACCNQFFVLDVVINFRRLSEGDLFTQLRKIVKMASNEDERLPPIGLLTSDGRSEWAKARTVLLKDSTNRDSLDMIERCICLVCLDGPGTGELSDTHRALQLLHGGGCSLNGANRWYDKSLQFVVGRDGTCGVVCEHSPFDGIVLVQCTEHLLKHMMTSNKKLVRADSVSELPAPRRLRWKCSPETQGHLASSAEKLQRIVKNLDFIVYKFDNYGKTFIKKQKYSPDGFIQVALQLAYYRLYQRLVPTYESASIRRFQEGRVDNIRSATPEALAFVQAMTDHKAAMPASEKLQLLQTAMQAQTEYTVMAITGMAIDNHLLALRELARDLCKEPPEMFMDETYLMSNRFVLSTSQVPTTMEMFCCYGPVVPNGYGACYNPQPEAITFCISSFHSCKETSSVEFAEAVGASLVDMRDLCSSRQPADSKPPAPKEKARGPTKPSNLDSSH”: “soluble”; for “MLITERIYVLEDVDVQAFLGVNNSNLMLLRTLFPKLRLVAHHNVLKIMGDSRETDRFLEVLEPMVAYCREYNLLPEDVILRIAQGAKLPADDVPKHLILHGTGGKSIIARGDNQQKLVEAFEANDLVFAIGPAGTGKTFVAISLAVRALKSKQVRRIILSRPAVEAGEKLGFLPGEMKDKLDPYLQPLYDALEEMIPAVKLKEYIENNIIQIAPLAYMRGRTLNDAVVILDEAQNTTELQMKMFLTRLGANAKMIVTGDITQTDLPRGVHSGLRQALNILQGTRGIGYIAFQRADIVRHPLVQRVVDAYDRYDAERKKEAEAAAVVAQTI”: “not soluble”; for “MGSDKIHHHHHHMKKTYLFSPGPVMVTDKVRNSLLHYDICHRGNEFMNLFKDTQQKINKLYNATSNYYSLIVSGSGTSVNECVLSSIFDKEDAVLLVSNGVFGERLEEILSTYNVKTYKPNFEWAEYPDLDILEKYIIENSDIKVIAMVFHETSSGMINPVPELGKLAKKYNKIFFVDAISASAGEYIDVEEFNIDIITGVGGKALGAFPGSAYLCAKESILQNIKENQCKNVYLNLYKHYKVAKSSSQTPNTPNVTLIFALNEALTEFLEDDSKIERYKECSAILRNGMEELGLTFLLPDKYMSNTVTSVFLPKEINVNEFILGLERESGYVVYPGKGKFLDANIFQVANMGEIYPEDCYKFLDILKSKLEIKKVI”: “not soluble”.
The same measure for “MSEPIPPFRYAPIVCSEQSTIVAEFVPEASGVREAGYQSEAELEAAFITQLQGQAYEYLSITSEAALLANLRRQLEKLNKVTLSDAEWEGFFSTCIAGAHDGIVQKTARIQEDHVQVLKRDDGTIKNMCLLDKGNIHNNILQVMNQYAVEGARGNRYDVTVLVNGLPMVHVELKRRGVDIREAFNQINRYQRDSFWAGSGLFDYVQLFVISNGTLTKYYSNTVRAGHVEEQSNKRSKSKTSNSFSFAIWWADAKNQPITELTSFTKTFFAKHSLLNVLTKYCVFNANRKLLVMRPYQIVAAERILQRIVTATHQQQLGTVAAGGYIWHTTGSGKTLTSFKVAQLACGLGVIDKVLFVVDRKDLDYQTMREYESFEKGAANSNTSTAVLQRQLEDSDVRIIITTIQKLSRFVAKHKQHPVYGAHVAVIFDECHRSQFGDMHTEITRAFQRYHLFGFTGTPIFAENAGSTQNPMRRTTQQTFGDTLHTYTIVDAINDKTVLPFRIDYINTIKSQPNINDKQVAAIDTERALLAPERIRQIVSYIREHFDQKTKRASIYRHEGQRLQGFNALLATASIDAAKRYYAELMAQQKDLPEAQRLKVGLIYSVAANEGDGDELLAEEEFETERLDQDARNFLEAAIQDYNALFGTSFDTSADKFQNYYKDVSERLKKRKLDILIVVNMFLTGFDATTLNTLWVDKRLKAHGLIQAYSRTNRILNSVKSYGNIVSFRNLEQETNEALALFGNKDAKGIVLLRPYAEYYKEYEERVGELVAAFPLGKVIVGEAAQKAFITLFGSILRLKNILTAFDDFAGQEVLTEREFQDYQSLYLNLYAEFRSASAAEKESINDDVVFEIELIKQVEINVDFILLLVEQYVKKKGTGEDKDIRATIERAIHSSPSLRNKKELIEQFVDAVSMKATVDAQWQAFVAVKQSQELEGIIAEENLNAEATREFIANAFRDGSIPATGTAITKILPPVSRFSKNNGHAAKKQTVLDKLATFFERYFGLV”: “soluble”; for “MKPNLLPMNLQMFAEEDGGTNFTFDDFKAFVESNEEAQKFVQSQSQSAADKQLEAWKQNNLEKIKETTIKEYEESKKNKTPEQIKLEELQAEFEAEKALRVTSDNKAFVAEKIAGLDWDGDLKDSISQFMLNNLVSSDTEFTKKAVEGFTELLEAINDKHAEAIKNVEMTKAFGNKSQQTNMGTGNQTKSFENPEVALGQKLQAFID”: “not soluble”.

The values above are taken from the DeepSol protein solubility set.
